Reference: patent US20240342298A1, “METHODS OF TREATING TUMORS BY USING MOLECULAR CONSTRUCT” (Immunwork Inc., priority 2023, published 2024)

Assays:
[1] = target: T1, human CD38 (Homo sapiens, UniProt P28907); experiment: cell-based ELISA binding to human CD38-overexpressing 293T cells
T1 construct: The cDNA of full-length human CD38 was cloned into pCDH-CMV-MCS-Ef1α-Puro expression vector; expressed in transfected cells; host or cells: HEK293T (lentiviral transduction with pCDH-CMV-CD38, puromycin selection)
Description: The cDNA of full-length human CD38 was cloned into pCDH-CMV-MCS-Ef1α-Puro expression vector to generate lentiviral-based CD38-expressing plasmid, pCDH-CMV-CD38. Lentivirus was packaged by co-transfecting pCDH-CMV-CD38, pCMV-VSV-G, and pCMV8R8.91 into HEK293T cells. Human CD38-overexpressing HEK293T cells were transduced with lentivirus infection and cultured with 1 μg/mL puromycin three days post-infection.

[2] = test system: MM.1S cells; experiment: alamarBlue cell viability assay, MM.1S cells; assay type: cell-based, human; settings: even at doses >20 μM
Description: (§1) Briefly, H929, U266-CD38^−, MM.1S, and Daudi cells were seeded at 5,000 cells/well in 96-well plates and co-cultured with fresh medium containing different test articles with the indicated concentrations at 37° C. for 5 hours, 1 day, 3 days, or 5 days. The viabilities of the cells were determined by alamarBlue™ cell viability reagent. About 10 μl alamarBlue™ cell viability reagent was added to the cells with a final concentration of 10% v/v, followed by incubating at 37° C. for 1.5 hours. The fluorescence was measured on a microplate reader in arbitrary fluorescent units following excitation at 560 nm and emission at 590 nm.
(§2) H929 cells were incubated for 5 hours, 1 day, 3 days, or 5 days (FIGS. 12A-12D), and MM.1S, U266-CD38-, and Daudi cells were incubated for 5 days (FIGS. 12E-12G). Then, cell viability was determined.

[3] = test system: H929 cells; experiment: alamarBlue cell viability assay, H929 cells; assay type: cell-based, human; settings: even at doses >20 μM
Description: as §1, §2

[4] = test system: U266-CD38- cells; experiment: alamarBlue cell viability assay, U266-CD38- cells; assay type: cell-based; settings: 5 days, FIG. 12F
Description: as §1, §2

EC50 [1]: 0.84 nM
B1: 2-chain (anti-CD38 scFv)-hIgG1.Fc-(Gly)3-BM fusion protein: dimer of (anti-CD38 scFv)-hIgG1.Fc-(Gly)3-BM, SEQ ID NO: 12; scFv VL and VH derived from daratumumab (protein)
chain: EIVLTQSPATLSLSPGERATLSCRASQSVSSYLAWYQQKPGQAPRLLIYDASNRATGIPARFSGSGSGTDFTLTISSLEPEDFAVYYCQQRSNWPPTFGQGTKVEIKGSTSGSGKPGSGEGSTKGEVQLLESGGGLVQPGGSLRLSCAVSGFTFNSFAMSWVRQAPGKGLEWVSAISGSGGGTYYADSVKGRFTISRDNSKNTLYLQMNSLRAEDTAVYFCAKDKILWFGEPVFDYWGQGTLVTVSSGGGASDKTHTCPPCPAPELLGGPSVFLFPPKPKDTLMISRTPEVTCVVVDVSHEDPEVKFNWYVDGVEVHNAKTKPREEQYNSTYRVVSVLTVLHQDWLNGKDYKCKVSNKALPAPIEKTISKAKGQPREPQVYTLPPSRDELTRNQVSLTCLVKGFYPSDIAVEWESNGQPENNYKTTPPVLDSDGSFFLYSKLTVDKSRWQQGNVFSCSVMHEALHNHYTQKSLSLSPGGGGACPGHA
modifications: homodimer
notes: scFv VL and VH derived from daratumumab
effect of cell death [2]: no effect of cell death
effect of cell death [3]: no effect of cell death
killing effect [4]: did not possess any killing effect
